# Biological target: the molecule itself
# Assay: Tricine SDS-PAGE, non-reducing against reducing; purified C5-His deglycosylated with glycopeptidase F, 12% gel
protein,measurement,value
N-terminal His-tagged C5 (C5-His) single domain of immunoglobulin new antigen receptor (IgNAR) (domain or fragment) PKVYLLHPSTDEIDTENSATLMCLATNFHPAEIYVGWMANDTLLDSGYRTQVDSEKGSGSSFVTDRLRLTAAEWNSDTTYSCLVGHPSLNRDLIRSTNKSNGKPSSVNVSVVLSDTVKSCT,stoichiometry N,2

# Reference: publication PMC7247132 (BMC Proceedings, 2020)
